# Experimental data from the domain aggregation screens of Martell et al. (2025).
# Assay: soluble fraction after stress (log2 fold change); higher = more stays soluble; pooled small domains, quantitative proteomics
# Settings: stress: 50 degC
# Method in brief: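 Pooled custom libraries of small protein domains were each held under stress at 50°C. The read-out, high-throughput quantitative proteomics, tracked how much of each protein stayed soluble. This is reported as a base-two log fold change used to indicate aggregation propensity. Higher values mean more protein remains in solution.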
row,Sequence,soluble fraction (log2)
1,HMDDPLSQLTPREREVLELMASGASNQGIADALVITVRAVEKYVSSIFGKLGLPSTGSESRRVLAVLTFLR,-0.635
2,HMKKDRKKMLKEGIVLFEKILRGMELSPTSEPLKKVLTSFNIQNKEDLYVKLGAGVISSEEVIKELKKK,0.183
3,HMNVVGAKGRIIKISSSEEKMAVAEIEGHGEWNIRTNSEIELFVGKSVEVIEMKGNYLLVNQI,-0.0624
4,HMTESSTYFEKIGTEISQFKSIPKNIDVIIIEKLIYSGIIKKVDNEENSRVYYILTRKGRYFWKRYVLS,0.0633
5,HMSSVVARRARIATLVVETSVASQEELGRLLADEGITVTQATLSRDLDALGAVKVLSADGGTRYRIPGQ,-0.778
6,HMDAKIEYTMSDLIENRLINSDDASMRREKLSEILKIGYGNGKKTLHKLNSFGITREEFEEAMKEVNSH,0.0697
7,HMKISDTITEKILTDNNFSMELAKKIGIQQGSLLSSIRRNRDSRILRLWEAVMFYKEQGYTEEEIFTDY,-1.27
8,HMYHKKEKAQAANIEERIMILLSDGKHHHITEIKAIYVDEVITLNILEEMLAEEKVIIEGDMIMLVE,-3
9,HMRYEESVTLGERLLNQSLVALKADNIDDALWERFLREEAGEKSRQEILSDIGLGKRLPVVVAKRLLAPS,0.0281
10,HMQPIAVHIGTENPMKSLSDLSVVRAQFTSGGRVIGSVAVLGPTRMQYSRIVGMMRFMQQRLDLLLKG,0.0586
11,HMKQLQIPYSFAKRHGVLLRYEGDQAFIVRRDNTSMLALQEARRLLGHPAHYLLYSEQEFNQLLSASFA,-2.7
12,HMKVQLGMNTREVRGIMGKPFSEDTFVEGEKRVDVLHYKEAVRVKTQGFILTTSLRFENDSLTAI,-1.74
13,HMNNSVAYSTFLNDIRTNTLKDVDMTSNSETINVTKKDGTKYQTVMPMYDRDLLADLSKTDATVTGQP,0.28
14,HMDDAFLNKEMLKQALENLNEREKKLIYLRFYEGLTQKEIADRLSLSQMHVSRLLNESLNKLRRKI,-0.245
15,HMSSVMMPDLTGESAIVAMERLQQLGLLPKVEEVDSYREPGIVLEQLPRAGEKIKRGRIAILKVSS,-0.26
16,HMWQVVEVDYGTFMSMTEDGQVGRVEIQEQENLILFTDQEETTVYKTAMVDDPDLTARLHDAGIPFYGQE,-0.64
17,HMLNNVDIHKLSEDLLLYKIKIDIKLKNIEDAISTIDYFSNKFPNSDLMPYVIYEKKLIDNI,-2.5
18,HMKPATSITFIPSERPDLVEQLSKITFDKKDSLYENYINLNWLTFEAISVYMREGDIIGFST,0.0284
19,HMNTLGTNIAKLRESQKLTQEELGKLSGVSRVSIYKIETGQSTPRDTTLQNIAEALHTTPSALRS,0.142
20,HMNEFSYLSELGSEKGDLIKGLQLVQSREGYVSDDAIRAISKHFSIAEAEVEGVLTFYAQFK,-0.572
21,HMIHTYVETRKVGNNDGLIRVDNKYYRVPQHLVGMKVQIQIDEATISVLQGGVMVATLDKTADVFNPQA,-0.782
22,HMEDYYKEDYYTEVLKIPKEYIKGFQYYLIEDAEFVNALNAKNKTMTSFLAKKLASDYIEIIHQEQ,-1.46
23,HMFIRINQTQNSPRKSVQIVESKRDGHKVRTKILRHVGIAMDDVELQKLKSLAQDIIAKMTVETENASKQ,-0.00422
24,HMGSAIAHAIASLPDRYRELLLLKYDTGYSEKEIAQLLGMTEANVKKTIQRAKAKLQTLLDEMEA,-0.81
25,HMGIVAQLPTIRVNGKTLYYYDAQSGDNIYSIAEKLGVTVEDIRANNPGVADGVKPRMRLFFPTSLAK,0.165

row,Sequence,soluble fraction (log2)
1,HMEQLESAVASRTLIGQAQGVIMERYGLSAPNAFSVLSRISQDSNTKLAEVAQQIVATRRIPG,-0.188
2,HMNDLVTWDRYKIELGDTLSEIAQKLVTRVDILKTVNQIQGTRIIAGNSLMVPRTTDTNVLTYL,-0.174
3,HMLTRSASREELDQLLKRLRQNLKQKNFFWPPDKEKSLVLYLENLFSKFPLNSSDIRFLHGIIRTLSEK,-0.178
4,HMNSVTLEHIVYDFRVFNMLKGSGINDIDELIKAAEDGRLFKIIGSNLTYKRIKKSAAEFGVILPDKPG,-0.351
5,HMRTRSDVKRAAIIQAAKDAFQEYGVNATSMDKLAEMASVSKRTVYNHFSAKEELVMHIVKE,0.166
6,HMDYENGTVKWFNTKKGYGFITRENGEDLFVHFRNIKGRGRRSLNDGEPVTFVVIEGDKGLQADQVSA,-0.025
7,HMLISKNLLGFTIKNTSGVTFGTLKDIMWLPSNDVYVIDNNGKEYLIPVISEIVKSINYDKGSITIFP,-0.352
8,HMEYKYNPADYPYPLNEDIEKVYSAYREKSIGKLEAAVQNLYYTLKQARRDNILSDVKVNEMQQYFLALRN,-0.324
9,HMSSKRDQFIVLGQEILEKMFKNEGLEFSEKGLLAVMPNFEAESINDIYAKVGEGLISGWDVMKAVYPAY,-0.133
10,HMPVSDLQSALRNTLSKGDATDPAFRQRVYRAAMDALERATGSESDPQRRSEQKQRLIAVIRDMEASYRR,0.277
11,HMLKKRKPMSGVGVIVKGMLTGTVTGTDGSYALKARPNDELSFSFLGYKTQEVFVGSKSTIDITLVDEA,-0.13
12,HMSHGSIYFSGKTGLKGSVDINGTVNSINKKIFLKPGNYNFLIKADGYKNLKGSFQISKGDKKFVELVLIP,-1.61
13,HMQAKDVEVPDYVGKSFVSIKENNPNDFKFEVKSEYDESKEMGVILDQEPKGGSMKVKSGSTITVTV,-0.0106
14,HMRHRITEKDKQFRIGQQVWHSEYGKGMVLSVDGIGSSARLTVSFVSGKLAKIIGTFVSTEP,-1.68
15,HMPMTLGENIARLRTQKDWSQGDLADALGISRQSISKWETDTSIPELEKLIKLSELFGVTLDQLVRGE,-0.193
16,HMQYALEDDLDSAIKLLTGKGLSGTVAWGWSDTYINVGKKSYSMEFIAKMLLRLGEGSRVTIQVDPA,-4.68
17,HMEVHLMPGTVLLREYESNEYRVTVTPEGFYDLNGKVFKSLSAVARHITGVNWSGPRFFGVEP,-2.08
18,HMTSLVRTSNLDGFEPLARSIGVDPVMELMRFGIPPDALIRENMFISFIGFIRLLEHTALAG,0.103
19,HMLEDYFKEEEYTEVLKIPKEYIKGFQYYLIEDAEFVNALRAKNKTMTLFLAKKLASDYIEIIRREQ,-0.208
20,HMLKLYILTDGKNYVMDDPIHPGRVMYSTSPVNAKKFTFKQARALLNNKSKKLSWIRSFNMVDDSSGEKI,-0.692
21,HMGTGVEQGKQYRTLKRDFDGASGIKVNGDFYRLRTSDTGMTELPAGTEVTFERFDGTTAVVHT,-0.0841
22,HMLTLEDMTRINSIISPRIKKGQSLYHIAKNNGDELNISESTLRRLVMTGEMDAGIIDLPQAVK,-0.138
23,HMAATHYEGIKQDGETDDAVIERVLTGLSVTANKDDIFIVKTLIAGTKYSYTAYVYNGNAWAAM,0.0325
24,HMENYYMPVVAGQSEQDAKSMLNAMKLSLSIQVQEQESDSVAKGLAIGTSPAAGSQIRKGSSVILYISKGA,-0.0609
25,HMVLVSNYGEVVRKARERKGLDHGSLAMKISEKKSIITSVESGNMKPNEKLIKKLENFLNINLM,-1.33

row,Sequence,soluble fraction (log2)
1,HMTRDGMTKEAFDSLLEDIMNILLDNGLKATTMGSIAKSLKMSKRTLYEIFSSKSQMVEEAIIASHTKMM,0.15
2,HMPLSLESVSEGGRNDTAARIAGYLIAKGLNVDFARFFLQSWNTKNKPPLDDTEIDTIVNSIMKTHERKNQ,-0.361
3,HMAKRYFVTTGVRVRTKPDTANSEVLTVLDEGSEIDYKGDYNNEWVKINYNGQEAYIAKQYVRSEE,-0.377
4,HMQPHLSADEEHLLKILGSDTMHIDALVKRSTLETSNALAALAFLEMKGLVKNIGNMHYIRTYR,-0.139
5,HMQDAVASEKIQLMSEALHARDTGDLLLAKEKVEKLIALAPNDKNIQALLLTINQSIEDKGL,0.101
6,HMEIFYGDDRVYTVSLHGQNNFPFRKKTSDFDYGFEDGTGDEEYLRVLDVTLSRLENEQFDLLFFQAGV,-0.203
7,HMQENVIIYPNPTKSVIYLSEKVEFILYNILGEIIFIGDNNKIDLNSFDNGVYIFESGNVRTQIIK,0.0489
8,HMDDPDALITDSQLKAIHVLLGKLKIDDNLKHAYIADVLQLKDIPETLKTLTKHQGSTIIERLNLLIKDA,0.0419
9,HMSNIAQRLVLENALAKLNQEQQTIIDLRIIKGYSVAETARLLGKTESAVRTAQYRALKELAGILEED,-0.86
10,HMITLYDLLGVSKTASSQEIKTAFKKKALQYHPDKNDGNPDKEEIFKRINMAYQVLGQPQSRANYDFSITP,-0.321
11,HMPGRVITVMVNGKRVDLPFREEPYIFVDLFRYMDFDVERARGRIQLAINGKKAGYTDIIREGDSIEI,-0.562
12,HMTREAILDTAEELLQRRGYNAFSYHHIAVQLGIRNAAIHYHFPAKEDLGIELVSRFRIRLAE,-0.146
13,HMTGRHEEAIQELKRTLELHPQKPKIFLLLGVSYLRLNNLKKAVEAFNTVLLLQPKNQKALTMLKEIKKR,0.0384
14,HMPEPLTARETEVLRLLSGGYSNREIAAAMFLAEGTIKNHVSAVLLKLGVRDRTRAVLRGLELGLIQ,-1.81
15,HMTLHEAMEKLFRQVGRPMTTKEIAEKLNENKWYQKADGSPLTPYQIYGRAKNYPALFHREGSIIYLKGS,-0.41
16,HMHSILDDIPTVGPARRKALMRRYESLEAIRQATVDELKELPEINEASAEAIVSFFAGQAKEG,-0.0626
17,HMERVNILEKATKDIPNVEVKAFEGLSVNFARENHAQVIVRGLRAVTDFEYELQMAQTNRVLAPDVDTVF,0.124
18,HMAVKTEHGRIWKALPEGQDGYREDVPMFTSKSMYDGSAGIGIFLIRLYEATSDERWLKEAEEAAAHII,0.351
19,HMITIDNYFNKEKELDFSSFPEALRKGHGFVSKATAHGSSWVSYHSSDAIKKTIDIYLSKLNEYLSNNAKA,-0.494
20,HMMTDEEFLRIAGYMKQRYGIDLGQKKVIMNGRLENHIKSGGWSSFHAFMNDLEKDSSGKLEKELVNLLTT,0.0314
21,HMGYDDVIVINGKNETYGFPTKVEDDPVLSLVIKGDRSIDYAEERRLFYVAMTRTKNRVFFVAP,0.0138
22,HMDKESQTMFRLLTGVSGVGPKVGLAILSVLSPDRVVLAISAGDHKAFTAASGVGPKLGQRIVLELKDKVG,-3.12
23,HMGRTITVGIAEDADIKDIAKMLEEKGLISDYRLFVVQELLSAQHDKIKPGIYDLSTDMKAEEMLEILAG,-0.541
24,HMDNMFVEERQALIYEELQSNGRVRVKDLSKKFNVSEDLIRKDLNVLEKEGKLRKIYGGAVLAK,0.568
25,HMGQQTVEPLSRRELEVLSLLAKGLSNQQIADRLVISVRTVKKHVENIHGKLGVQSRTQAVARARELGLV,0.122
